Results published in patent publication US12559740B2, “Process for the direct enzymatic conversion of amino sugars; enzyme and compositions for use in the process” (GLYCOMICS AND GLYCAN BIOENGINEERING RESEARCH CENTER …, priority 2021, dated 2026).

Test system: N[C@H]1C(O)O[C@H](CO)[C@@H](O)[C@@H]1O
Assay: Kinetic analysis of Ef-GPDA with glucosamine (conversion of glucosamine to fructose, photometric at 505 nm after resorcinol derivatization)
Type: biochemical, Enterococcus faecalis
Conditions: other: substrate glucosamine (3 to 140 mM solutions, 30 μL), MES buffer pH 7.0, MgCl2, 40° C., 10 h
Experimental: Reaction mixtures (50 μL) were centrifuged at 12000 g for 10 min at room temperature, and 40 μL samples of the supernatant were taken and mixed with 35 μL conc. HCl and 5 μL of resorcinol-thiourea reagent (consisting of 0.1% (w/V) resorcinol and 0.25% (w/V) in glacial acetic acid). The mixed samples were incubated at 80° C. for 10 min and then centrifuged at 12000 g for 10 min at room temperature. The supernatants (50 μL) were then transferred to 96 microplate and the absorbance at λ=505 nm measured with a microplate photometer (Thermo Multiskan).
Genes encoding the wild-type or mutant variants of GDPA were synthesized in an E. coli codon-optimized form (Genscript) and delivered in a pUC19 vector with ampicillin resistance. The protein-encoding insert was cut via Ndel and Xhol restriction enzymes (Takara) and ligated in a pET30a expression vector via T4 Ligase (Takara). The GPDA enzymes were prepared as follows: a fresh single colony from an LB agar plate supplemented with […] Kanamycin and used to grow E. coli strain BL21 comprising the respective plasmid was used to inoculate 5 mL of LB liquid medium with the same concentration of Kanamycin. Following incubation of said culture over night at 120 rpm and 37° C. 2 mL of the overnight culture was used to inoculate 400 mL of the same medium in a 2 L flask. […]

Ef-GPDA, glucosamine-6-phosphate deaminase from Enterococcus faecalis, wild type, SEQ ID NO: 1 (Enterococcus faecalis V583)
Km: 21.8 ± 2.3 mM
Vmax: 4.0 ± 0.2 µmol/min
